Test [1] addresses polyubiquitin (UniProt P0CG48). The experiment in a line: ELISA; 0.50 ug polyubiquitin dried per well (Nunc MaxiSorp), blocked with 1% BSA; angiocidin or mutants at various concentrations in TBST pH 7.4, 1.5 h, room temperature; detected with biotinylated rabbit antiangiocidin IgG and streptavidin-HRP; fitted to a rectangular hyperbola. Background: ELISA stands for enzyme-linked immunosorbent assay.

Test [2] deals with polyubiquitin (UniProt P0CG48). Described as above. The source holds these as a separate data set.
For test [3], the target named is polyubiquitin (UniProt P0CG48).

Here are results for two substances from paper PMC2361611.

Where two headings read alike, the source gives them in different places.

One may read the Kd as the constant that tells how readily two partners part at equilibrium. Turning to “angiocidin (his-tagged recombinant, full length) (natural protein)”, the Kd in the test with polyubiquitin [1] came out at 0.041 nM.
Consider “angiocidin mutant M-2 (L216ALAL220 substituted with alanines) (natural protein)”, for which the Kd turned out to be 1.52 nM in the test with polyubiquitin [2] and 15 nM with polyubiquitin [1]. The endothelial cell apoptotic activity: viability of HUVE cells plated overnight on wells coated with 1 ug protein, Alamar blue assay (fold lower than angiocidin) with polyubiquitin [3] was determined as 2.
